Laboratory results: US11020478B2, “Methods for modulating angiogenesis of cancers refractory to anti-VEGF treatment” (INIS BIOTECH LLC, priority 2013, dated 2021)

Tests used:
VEGFR2 = assay: Immunoblot of VEGFR2 phosphorylation in HUVEC; format: cell-based, human
Description: Cells were lysed and analyzed by the human […] RTK Signaling Antibody Array (Cell Signaling) following the manufacturer's directions. For co-immunoprecipitation, 500 μg lysates were incubated with 2 μg anti-VEGFR2 (55B11; Cell Signaling) Ab. The immunocomplexes were captured with protein G PLUS-Agarose (Santa Cruz) and processed for immunoblotting (according to methods described in Ilarregui et al., Nat. Immunol. 10, 981-99 (2009)). Blots were probed with anti-Erk1/2 (C14), anti-phospho-Erk1/2 (E4), anti-actin (I-19), anti-Gal3 (B2C10), anti-Gal4 (Q20), anti-Gal7 (H8) or anti-Gal8 (D18) Ab (all from Santa Cruz) or anti-Akt (9272), anti-phospho-Akt (9271 S), anti-VEGFR2 (55B11), anti-phospho-VEGFR2 (19A10) Ab (all from Cell Signaling) or a rabbit anti-Gal1 polyclonal IgG (1.5 μg/ml) (as described in Rubinstein et al., Cancer Cell 5:3, 241-51 (2004)).

HUVEC migration = assay: EC migration assay (HUVEC); format: cell-based, human
Description: (§1) Cells were incubated at 37° C. for periods ranging from 0 to 24 h and were visualized by phase-contrast microscopy. Capillary-like tubular structures were scored by counting the number of tubules (closed areas) per well in a phase-contrast microscope (Nikon E-100). For migration assays, ECs (4×10^4/well) transfected or not with specific siRNA were resuspended in M199 medium supplemented with 1% FCS. Cells were placed into the top chamber of the insert while the bottom well was filled with Gal1 or VEGF-A in the absence or presence of the above mentioned stimuli. After 24 hours, inserts were stained with crystal violet (Sigma) and analyzed in an inverted microscope. For each filter, 4 images were obtained and cells were counted with ImageJ software v1.46r (NIH). […] After 24 hours, cells were incubated in the presence of 0.8 μCi [^3H]-thymidine (NEN Dupont). Cells were then harvested and radioactivity was measured in a 1414 Liquid Scintillation Counter (Perkin Elmer). Tumor-associated ECs were identified by flow cytometry using Alexa Fluor 647-conjugated anti-CD34 (RAM34; eBioscience) and FITC-conjugated anti-CD45 (J33; Immunotech). Microvessel density (MVD) was determined by counting the number of CD31^+ microvessels present in 10 mm^2. Ten random 400× fields were counted.

B16-F0 melanoma [1] = assay: In vivo tumor model, B16-F0; parameters: species or system mouse
Description: (§2) Mice were anesthetized and intracardiacally perfused with PBS and 4% (w/v) paraformaldehyde and tissues were embedded in OCT. To visualize the vasculature, mice were intravenously injected with FITC-conjugated Griffonia simplicifolia Lectin-1 (GLS-1B4; Vector) prior to heart perfusion and fixation. Pericyte maturation was assessed using Ab specific for α-SMA (1A4; Dako), desmin (D33; Dako), PDGFR-β (APB5; Biolegend) and RGS5 (HPA001821; Prestige Sigma). The fraction of pericyte coverage was calculated as the ratio of α-SMA area to the FITC-GLS-1B4 or CD31-stained area using a specific anti-CD31 Ab (Mec13.3; BD Biosciences). Hypoxia was detected after injection of pimonidazole hydrochloride for 30 min following immunostaining with Hypoxyprobe-1 plus kit (Natural Pharmacia). Tumor-infiltrating cells were analyzed using anti-CD8 (H35-17.2; e-Bioscience) and anti-F4/80 (BM8; eBioscience) mAb.
(§3) Wild-type or Gal1 knockdown B16-F0, LLC1 and R1.1 (2.5 or 5×10^5 cells) were subcutaneously inoculated into 6- to 8-week old WT, Mgat5^−/−, St6gal1^−/− or Rag1^−/− B6 mice. CT26 (5×10^5) cells were injected into syngeneic BALB/c mice. When tumors reached 100 mm^3, mice were inoculated intraperitoneally with anti-VEGF (B20-4.1.1; 5 or 10 mg/kg), anti-Gal1 (F8.G7; 5, 10 or 15 mg/kg) or isotype control mAb twice weekly. Axitinib (30 mg/kg; Sigma) was administered every two days by oral gavage. Mice were sacrificed when tumors reached a volume greater than 2.5 cm^3. Two weeks after tumor inoculation, TDLN cells (5×10^5/well) were re-stimulated ex vivo for 72 hours with lysates of B16-F0 or LLC1 cells and analyzed for proliferation and cytokine production (as described in Rubinstein et al., Cancer Cell 5:3, 241-51 (2004)).

TDLN cells = assay: TDLN cell responses of tumor-bearing mice (ex vivo restimulation, ELISA, flow cytometry); format: in vivo, mouse
Description: (§4) Gal1 was determined using an in-house ELISA (according to the methods described in Croci et al., J. Exp. Med. 209:11, 1985-2000 (2012). The mouse IFN-γ (DY485), mouse IL-17 (DY421), mouse TGF-β1 (DY1679), mouse Gal3 (DY1179) and human VEGF-A (DY293B) ELISA sets were from R&D. The mouse IL-10 (555252) set was from BD Biosciences, the mouse bFGF (Ab100670) set was from Abcam, and the mouse Gal8 (SEA308Mu) set was from USCN Life Science. Optical densities were determined at 450-550 nm in a Multiskan MS microplate reader (Thermo Electron Corporation).
(§5) For intracellular cytokine staining, TDLN cells were made permeable with Perm2 solution (BD Biosciences) and were labeled with fluorescent-conjugated mAb anti-IFN-γ (XMG1.2; BD Biosciences), anti-IL-17 (TC11-18H10; BD Biosciences), anti-IL-10 (JESS-16E3; eBioscience), anti-CD8 (H35-17.2; eBioscience) and anti-CD4 (GK1.5; BD Biosciences). Cells were analyzed on a FACSCanto II flow cytometer (BD Biosciences). For adoptive transfer, splenic T cells (5×10^6) from tumor-bearing mice were labeled with CFSE (Molecular Probes) and injected through the tail vein into tumor-bearing recipient mice treated with F8.G7 mAb or isotype control. APC-fluorescent beads (7-10 μm; BD Biosciences) were injected as controls. CFSE^+ cells or APC^+ beads were analyzed after 24 h or 15 min respectively by flow cytometry in the tumor parenchyma and spleen.
as §2
Wild-type or Gal1 knockdown B16-F0, LLC1 and R1.1 (2.5 or 5×10^5 cells) were subcutaneously inoculated into 6- to 8-week old WT, Mgat5^−/−, St6gal1^−/− or Rag1^−/− B6 mice. CT26 (5×10^5) cells were injected into syngeneic BALB/c mice. […] Two weeks after tumor inoculation, TDLN cells (5×10^5/well) were re-stimulated ex vivo for 72 hours with lysates of B16-F0 or LLC1 cells and analyzed for proliferation and cytokine production (as described in Rubinstein et al., Cancer Cell 5:3, 241-51 (2004)).

R1.1 T-cell lymphoma = assay: In vivo tumor model, R1.1; parameters: species or system mouse
Description: as §1, with “counted. […]” for “counted.”

B16-F0 melanoma [2] = assay: In vivo tumor model, B16-F0; parameters: species or system mouse; settings: single administration of F8.G7 mAb, 10 mg/kg
HUVEC tube formation = assay: Capillary-like tube formation on Matrigel (HUVEC); format: cell-based, human; settings: HUVEC
Description: as §1

Gal1 = molecular target: T1, Gal1 (Mus musculus, UniProt P16045); assay: ELISA of Gal1 secretion by tumors inoculated in syngeneic mice; format: in vivo; settings: B16-F0, LLC1 and R1.1 tumors, day 16
T1 construct: from tissue; host or cells: B16-F0, LLC1 and R1.1 tumours grown in syngeneic mice
T1 sequence (P16045 whole entry): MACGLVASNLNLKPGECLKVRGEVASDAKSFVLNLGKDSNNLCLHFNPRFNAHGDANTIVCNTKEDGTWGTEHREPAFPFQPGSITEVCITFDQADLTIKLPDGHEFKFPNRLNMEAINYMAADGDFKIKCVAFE
Description: as §4, §3

[3] = test system: other members of the galectin family; settings: cited from earlier work
B16-F0 tumor parenchyma = assay: Adoptive transfer of CFSE-labeled T cells / fluorescent beads, influx to tumor and spleen; format: in vivo, mouse
Description: as §5

[4] = test system: LLC1 Lewis lung carcinoma; assay: In vivo tumor model, LLC1; parameters: species or system mouse
Description: as §1, with “Tumor-associated ECs were identified by flow cytometry using Alexa Fluor 647-conjugated anti-CD34 (RAM34; eBioscience) and FITC-conjugated anti-CD45 (J33; Immunotech).” left out
Mice were anesthetized and intracardiacally perfused with PBS and 4% (w/v) paraformaldehyde and tissues were embedded in OCT. […] Pericyte maturation was assessed using Ab specific for α-SMA (1A4; Dako), desmin (D33; Dako), PDGFR-β (APB5; Biolegend) and RGS5 (HPA001821; Prestige Sigma). […]

[5] = F8.G7 10 mg/kg combined with anti-VEGF mAb, day 7
[6] = single administration of F8.G7 mAb, 10 mg/kg

B1: F8.G7: mouse anti-Gal1 blocking (neutralizing) monoclonal antibody; hybridoma 8F4.F8.G7, ATCC deposit PTA-10535; vH SEQ ID NO: 6, vK SEQ ID NO: 11 (antibody, V domains shown)
VH: EVQLQQSVAEFVRPGASVRLSCTASGFNIKNTYIHWVRQRPEQGLEWIGKIDPANGNTKYVPEFQGKATMTADTSSNTVYLHLSSLTSEDTAIYYCVDGYYGWYFAVWGTGTTVTVSS
VL: QAVVTQESALTTSPGETVTLTCRSSTGAVTTSNYANWVQEKPDHLFTGLIGATNNRAPGVPARFSGSLIGDKAVLTITGAQTEDEAIYFCALWYRNHFIFGSGTKVTVL
modifications: Anti-human
Gal1-induced VEGFR2 phosphorylation (VEGFR2): inhibited to levels comparable to those attained by MGAT5 silencing | EC migration induced by Gal1 (HUVEC migration): specifically prevented | therapeutic benefit of anti-VEGF (B16-F0 melanoma [1]; F8.G7 10 mg/kg combined with anti-VEGF mAb): slightly enhanced | remodeling of tumor vasculature (B16-F0 melanoma [1]; days 4-5 post treatment): substantial remodeling of the vasculature | pericyte coverage of tumor vessels (B16-F0 melanoma [1]; days 4-5 post treatment, vs control mAb): greater coverage by pericytes | anti-tumor effect (B16-F0 melanoma [1]; immunodeficient B6.Rag1−/− mice): only a partial anti-tumor effect | concentrations at which active (B16-F0 melanoma [1]; in vivo tumor models): 5 to 10 mg/kg | tumor hypoxia (pimonidazole adducts) (B16-F0 melanoma [1]; mouse, in vivo): markedly alleviated | tumor growth at different doses (B16-F0 melanoma [1]; treated when tumors reached 100 mm^3): dose-dependent effect | Desmin expression in pericytes (B16-F0 melanoma [1]; vs control-treated tumors): no significant variations | PDGFR-β expression in pericytes (B16-F0 melanoma [1]; vs control-treated tumors): lower expression | RGS5 expression in pericytes (B16-F0 melanoma [1]; vs control-treated tumors): lower expression | α-SMA expression in pericytes (B16-F0 melanoma [1]; vs control-treated tumors): higher expression | T-cell proliferation (TDLN cells; mice bearing B16-F0 tumors): stimulated | tumor-specific IL-10 production (TDLN cells; mice bearing B16-F0 tumors): blunted | immunological phenotype (TDLN cells; mice inoculated with LLC1): confirmed | number of TDLN and tumor-infiltrating IFN-γ-producing CD8+ T cells (TDLN cells; vs control-treated mice): dramatic increase | anti-VEGF resistance (tumor growth inhibition and reduced vascularization) (R1.1 T-cell lymphoma; [5]): successfully circumvented | tumor growth and vascularization (R1.1 T-cell lymphoma; [6]): sustained inhibition of tumor growth and vascularization | tumor growth and vascularization (B16-F0 melanoma [2]): sustained inhibition of tumor growth and vascularization | tube formation induced by Gal1 (HUVEC tube formation): specifically prevented | amounts of secreted Gal1 (Gal1): dropped substantially | binding to other members of the galectin family [3]: did not bind | T cells reaching tumor parenchyma (B16-F0 tumor parenchyma; CFSE-labeled T cells, vs control isotype): greater number | number of CFSE+ T cells in spleens (B16-F0 tumor parenchyma; vs control isotype): no differences | access of fluorescently-labeled beads to the tumor parenchyma (B16-F0 tumor parenchyma; vs control-treated mice): increased access | anti-VEGF resistance (tumor growth inhibition and reduced vascularization) [4, 5]: successfully circumvented | tumor growth and vascularization [4, 6]: sustained inhibition of tumor growth and vascularization
